Measurements reported in patent publication US20110311499A1 (University of Washington, published 2011).

T1: Tse1-His6 (purified Tse1, PA1844, with C-terminal hexahistidine tag) (Pseudomonas aeruginosa PAO1, UniProt Q9I2Q1 1-154)
T1 construct: not shown: C-terminal hexahistidine tag (six His) from pET29b+
T1 sequence: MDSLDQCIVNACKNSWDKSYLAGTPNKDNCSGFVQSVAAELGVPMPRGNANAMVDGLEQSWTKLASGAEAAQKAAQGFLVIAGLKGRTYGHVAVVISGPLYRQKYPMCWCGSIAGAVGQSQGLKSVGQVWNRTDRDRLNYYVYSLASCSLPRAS

T2: Tse3-His6 (purified Tse3, PA3484, with C-terminal hexahistidine tag) (Pseudomonas aeruginosa PAO1, UniProt Q9HYC5 1-408)
T2 construct: not shown: C-terminal hexahistidine tag (six His) from pET29b+
T2 sequence: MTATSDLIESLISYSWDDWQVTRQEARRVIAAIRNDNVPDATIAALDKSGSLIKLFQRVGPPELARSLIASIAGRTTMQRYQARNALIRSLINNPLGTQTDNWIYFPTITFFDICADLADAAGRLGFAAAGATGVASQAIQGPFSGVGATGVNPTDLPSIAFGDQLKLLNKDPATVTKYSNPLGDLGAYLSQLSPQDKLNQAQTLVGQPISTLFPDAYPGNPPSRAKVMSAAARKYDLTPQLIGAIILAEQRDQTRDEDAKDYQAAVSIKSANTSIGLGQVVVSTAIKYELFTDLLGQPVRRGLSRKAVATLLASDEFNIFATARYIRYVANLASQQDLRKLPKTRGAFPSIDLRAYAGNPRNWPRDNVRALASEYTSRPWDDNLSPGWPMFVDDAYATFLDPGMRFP


Tests used:
[1] = molecular target: T1, Tse1-His6 (purified Tse1, PA1844, with …); assay: co-immunoprecipitation (FIG. 17a)
[2] = molecular target: T2, Tse3-His6 (purified Tse3, PA3484, with …); assay: co-immunoprecipitation (FIG. 17a)

Binder	binding result [1]	binding result [2]
Tsi1-V (type VI secretion immunity protein 1 fused to the VSV-G epitope) (other) ADCTFTQLEIVPQFGSPNMFGGEDEHVRVMFSNEDPNDDNPDAFPEPPVYLADRDSGNDCRIEDGGIWSRGGVFLSQDGRRVLMHEFSGSSAELVSYDSATCKVVHREDISGQRWAVDKDGLRLGQKCSGESVDSCAKIVKRSLAPFCQTAKK	binds	
Tsi3-V (type VI secretion immunity protein 3 fused to the VSV-G epitope) (other) CTAESGVDFDKTLTHPNGLVVERPVGFDARRSAEGFRFDEGGKLRNPRQLEVQRQDAPPPPDLASRRLGDGEARYKVEEDDGGSAGSEYRLWAAKPAGARWIVVSASEQSEDGEPTFALAWALLERARLQ		binds
